Article PMC2939310 (Biochemistry, 2010)

Molecular target: the molecule itself
Assay: SEC

B1: DesVII-C-His6/DesVIII-N-Stag heterodimer (complex, Streptomyces venezuelae)
chain 1: MRVLLTSFAHHTHYYGLVPLAWALLAAGHEVRVASQPALTDTITGSGLAAVPVGTDHLIHEYRVRMAGEPRPNHPAIAFDEARPEPLDWDHALGIEAILAPYFYLLANNDSMVDDLVDFARSWQPDLVLWEPTTYAGAVAAQVTGAAHARVLWGPDVMGSARRKFVALRDRQPPEHREDPTAEWLTWTLDRYGASFEEELLTGQFTIDPTPPSLRLDTGLPTVGMRYVPYNGTSVVPDWLSEPPARPRVCLTLGVSAREVLGGDGVSQGDILEALADLDIELVATLDASQRAEIRNYPKHTRFTDFVPMHALLPSCSAIIHHGGAGTYATAVINAVPQVMLAELWDAPVKARAVAEQGAGFFLPPAELTPQAVRDAVVRILDDPSVATAAHRLREETFGDPTPAGIVPELERLAAQHRRPPADARH
chain 2: MTDDLTGALTQPPLGRTVRAVADRELGTHLLETRGIHWIHAANGDPYATVLRGQADDPYPAYERVRARGALSFSPTGSWVTADHALAASILCSTDFGVSGADGVPVPQQVLSYGEGCPLEREQVLPAAGDVPEGGQRAVVEGIHRETLEGLAPDPSASYAFELLGGFVRPAVTAAAAAVLGVPADRRADFADLLERLRPLSDSLLAPQSLRTVRAADGALAELTALLADSDDSPGALLSALGVTAAVQLTGNAVLALLAHPEQWRELCDRPGLAAAAVEETLRYDPPVQLDARVVRGETELAGRRLPAGAHVVVLTAATGRDPEVFTDPERFDLARPDAAAHLALHPAGPYGPVASLVRLQAEVALRTLAGRFPGLRQAGDVLRPRRAPVGRGPLSVPVSSS
stoichiometry N: 3 heterodimers in the complex
